Test results: patent publication US20100233157A1 (published 2010)

Key:
[1] = target: T1, Human Fas (CD95) on the cell surface (human, UniProt P25445 26-335); experiment: flow cytometry on SKW6.4 cells, FITC anti-human IgG secondary, geometric MFI after background subtraction
T1 construct: also called APO-1; TNR6_Human
T1 sequence: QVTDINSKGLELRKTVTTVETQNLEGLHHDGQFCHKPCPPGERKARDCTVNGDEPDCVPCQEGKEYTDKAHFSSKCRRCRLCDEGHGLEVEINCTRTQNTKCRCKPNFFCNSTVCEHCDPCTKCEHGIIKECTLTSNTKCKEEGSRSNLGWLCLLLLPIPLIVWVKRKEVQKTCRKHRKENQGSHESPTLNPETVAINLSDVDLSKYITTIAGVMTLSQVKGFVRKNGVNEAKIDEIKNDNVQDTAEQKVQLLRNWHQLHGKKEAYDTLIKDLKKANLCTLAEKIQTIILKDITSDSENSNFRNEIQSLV
Description: Binding of F45D9-γ1 and F45D9-γ4 to the surface of Fas expressing Jurkat and SKW6.4 cells (from ATCC, Jurkat, clone E6-1, ATCC-TIB-152, Human T Leukemia cell line); SKW6.4 cells, ATCC-TIB-215, Human B lymphoblastoid cell line) was explored by immunofluorescence staining and flow cytometry analysis. Cells were cultured in RPMI 1640 medium (GIBCO, Cat. 3105205) supplemented with 2 mM glutamax (GIBCO), 100 UI/mL penicillin, 100 μg/mL streptomycin (Sigma) and 5-10% fetal bovine serum (GIBCO), at 37° C. and 5% CO₂. After washing in PBS Jurkat or SKW6.4 cells (0.2×10⁶ cells/well) were incubated in staining buffer (PBS/1% FBS) containing F45D9-γ1, F45D9-γ4 or human IgG control antibodies (Human IgG1, kappa, Sigma, Cat. I5154 or Human IgG4, kappa, Sigma, Cat. I4639) in a 96-well U-bottom plate for 30 min on ice, in a 100 ul/well volume. Cells were then washed once with staining buffer, and further incubated for 30 min on ice with 1:30 dilution of FITC-conjugated rabbit F(ab′)₂ anti-human IgG (DakoCytomation Cat. F0056). After washing and fixing with 1% formaldehyde in PBS cells were analyzed in a FACScan (Becton Dickinson, Mountain View, Calif.). The reactivity of F45D9-γ1 and F45D9-γ4 to the surface of Jurkat cells was quantified and Geometric Mean Fluorescence Intensity (MFI) after background subtraction (FIG. 1A) and histograms (FIG. 1B) are shown. […]

[2] = target: T2, Chimpanzee Fas on the cell surface (chimpanzee, UniProt K6ZIR5 26-335); experiment: flow cytometry histograms (FL1-H) on chimpanzee cells (cell type not printed on the sheet), FITC anti-human IgG secondary
T2 construct: also called Fas on chimpanzee B cell line
T2 sequence: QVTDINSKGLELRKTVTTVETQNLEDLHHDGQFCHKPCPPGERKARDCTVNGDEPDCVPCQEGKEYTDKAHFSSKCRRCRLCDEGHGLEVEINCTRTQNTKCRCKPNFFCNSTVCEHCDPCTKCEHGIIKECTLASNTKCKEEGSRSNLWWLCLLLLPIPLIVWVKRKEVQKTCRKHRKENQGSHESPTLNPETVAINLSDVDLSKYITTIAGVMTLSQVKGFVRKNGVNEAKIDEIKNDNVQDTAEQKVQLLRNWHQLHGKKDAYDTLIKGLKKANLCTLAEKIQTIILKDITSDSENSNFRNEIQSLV
Source text: Reactivity of F45D9-γ1 or F45D9-γ4 mAb with Fas molecules of various species was initially screened using primary blood cells or lymphocytes cell lines. The binding of F45D9-γ1 or F45D9-γ4 mAb was explored by immunofluoresce staining and flow cytometry analysis, in human PBMC, purified human resting T cells, activated human T cells, peripheral blood lymphocytes (PBL) derived from BALE/c mice, rat, dog and pig, and in B cell lines or PBL derived from common marmoset, cynomolgus macaque, olive baboon, rhesus macaque and chimpanzee. Resting and activated human T cells were prepared as described in Example 7. B cells lines from monkeys were obtained from Biomedical Primate Research Center (Rijswijk, The Netherlands), and were cultured in RPMI 1640 medium supplemented with 2 mM glutamax, 100 UI/mL penicillin, 100 μg/mL streptomycin and 10% fetal bovine serum, at 37° C. and 5% CO₂. After washing in PBS cells (0.2−0.4×10⁶ cells/well) were incubated in staining buffer (PBS/1% FBS) containing F45D9-γ1 or human IgG control antibodies (10-20 ug/ml) in a 96-well U-bottom plate for 30 min on ice, in a 100 ul/well volume. Cells were then washed once with staining buffer, and further incubated for 30 min on ice with 1:30 dilution of FITC-conjugated rabbit F(ab′)₂ anti-human kappa (DakoCytomation Cat. F0434) or FITC-conjugated rabbit F(ab′)₂ anti-human IgG (DakoCytomation Cat. F0056). […]

EC50 (read off the curve) [1]: ~0.4 mg/L
binding result [2]: binds
B1: F45D9-γ1 mAb (recombinant human mAb T17/B2-1G4, gamma-1 isotype) (antibody, V domains shown)
VH: QVQLQQWGAGLLKPSETLSLICAVYGGSFSTYYWTWIRQPPGKGLEWIGEINHRGTTNYSPSLKSRVTISVDTSKNHISLNLTSVTAADTALYYCARGLLWIGEGDYGLDVWGQGTTVTVSS
VL: DIQMTQSPSSLSASVGDRVTITCRASQGIRRWLAWYQQKPEKAPKSLIYAASSLQSGVPSRFSGSGSGTDFTLTISSLQPEDFATYYCQQYNSYPYTFGQGTKLEIKR
notes: Whole human IgG1 (γ1fa allotype) with human kappa light chain, made in CHO DG44 cells; also called IgG1; T17/L18/B2-1G4
